Target: purified recombinant Hsp70 (UniProt P0DMV8 1-641)
Sequence (P0DMV8 whole entry): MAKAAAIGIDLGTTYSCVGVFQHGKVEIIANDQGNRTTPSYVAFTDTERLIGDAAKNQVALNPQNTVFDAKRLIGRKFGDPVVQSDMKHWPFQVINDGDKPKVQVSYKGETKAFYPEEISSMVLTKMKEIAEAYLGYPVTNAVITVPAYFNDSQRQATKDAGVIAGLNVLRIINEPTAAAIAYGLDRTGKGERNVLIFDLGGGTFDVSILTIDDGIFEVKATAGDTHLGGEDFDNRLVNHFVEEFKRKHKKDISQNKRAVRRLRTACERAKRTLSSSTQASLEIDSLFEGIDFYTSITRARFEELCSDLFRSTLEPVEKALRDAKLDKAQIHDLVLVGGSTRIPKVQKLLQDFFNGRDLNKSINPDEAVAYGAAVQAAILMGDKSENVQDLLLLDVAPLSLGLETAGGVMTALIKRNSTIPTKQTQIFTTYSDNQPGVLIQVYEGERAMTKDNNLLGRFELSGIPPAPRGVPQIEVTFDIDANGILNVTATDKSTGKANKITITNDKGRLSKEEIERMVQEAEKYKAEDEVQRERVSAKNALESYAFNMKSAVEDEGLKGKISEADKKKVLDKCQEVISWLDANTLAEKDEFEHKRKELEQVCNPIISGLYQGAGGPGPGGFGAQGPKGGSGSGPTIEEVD

B1: recombinant normal PABPN1 (wt-PABPN1) from E. coli (natural protein)
chain: MAAAAAAAAAAGAAGGRGSGPGRRRHLVPGAGGEAGEGAPGGAGDYGNGLESEELEPEELLLEPEPEPEPEEEPPRPRAPPGAPGPGPGSGAPGSQEEEEEPGLVEGDPGDGAIEDPELEAIKARVREMEEEAEKLKELQNEVEKQMNMSPPPGNAGPVIMSIEEKMEADARSIYVGNVDYGATAEELEAHFHGCGSVNRVTILCDKFSGHPKGFAYIEFSDKESVRTSLALDESLFRGRQIKVIPKRTNRPGISTTDRGFPRARYRARTTNYNSSRSRFYSGFNSRPRGRVYRGRARATSWYSPY
B1 gave a Kd of 14 µM.
